In publication PMC3545708:

Molecular target: isolated HC fragment of BoNT/A (receptor-binding domain), wild type (Clostridium botulinum)
Test: ITC

## full-length NTNHA-A1 (non-toxic non-hemagglutinin protein) (from UniProt Q45914 1-1193) (natural protein)
  Kd: 48.3 nM
